Data from US20240116984A1 (UNIVERSITY OF NOTRE DAME DU LAC, published 2024).
Starred links: 1 amine or outer side, 2 acyl side, 3 side chain; linkers in the order of their positions; H or OH if unused. Non-standard residues stand in square brackets, D forms with d. Primed or numbered codes have the meaning given here. aTyr = Tyr with backbone N-amino (N-aminated amide nitrogen), NN([C@@H](Cc1ccc(O[*:3])cc1)C(=O)[*:2])[*:1]; aIle′ = Ile with backbone N-amino (N-aminated amide nitrogen), CC[C@H](C)[C@@H](C(=O)[*:2])N(N)[*:1]; aVal = Val with backbone N-amino (N-aminated amide nitrogen), CC(C)[C@@H](C(=O)[*:2])N(N)[*:1]; N(NH2)Lys = NCCCC[C@H](NN)C(=O)O

Target: Human tauP301L (0N4R), recombinant, N-terminal His tag (human, UniProt P10636 2-758)
Sequence (P10636 other isoform, or with tags, fused parts or gaps): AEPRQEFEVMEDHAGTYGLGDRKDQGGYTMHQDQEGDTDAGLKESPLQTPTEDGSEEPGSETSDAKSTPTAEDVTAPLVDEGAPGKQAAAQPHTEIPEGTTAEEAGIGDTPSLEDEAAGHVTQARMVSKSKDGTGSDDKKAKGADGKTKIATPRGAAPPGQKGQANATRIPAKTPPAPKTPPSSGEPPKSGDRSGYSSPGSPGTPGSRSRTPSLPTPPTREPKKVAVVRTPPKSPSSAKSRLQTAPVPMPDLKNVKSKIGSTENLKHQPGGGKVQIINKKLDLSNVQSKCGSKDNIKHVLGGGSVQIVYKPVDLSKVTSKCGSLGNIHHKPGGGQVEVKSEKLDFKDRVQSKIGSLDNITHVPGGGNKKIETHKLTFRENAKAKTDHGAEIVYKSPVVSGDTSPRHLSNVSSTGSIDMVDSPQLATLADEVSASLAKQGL
Assay: cell-based or functional assay

Binder	end-point ThT fluorescence of heparin-induced tau aggregation (Tau 10 µM: Inhibitor 20 µM, 48 h) [%]	fibril capping IC50 in cells (mature tauP301L fibrils incubated 36 h with inhibitor, then HEK293 tau-RD(LM)-YFP cells) [µM]
Ac-VQ[aIle′]V[aTyr]K-NH2 (SMILES CC[C@H](C)[C@@H](C(=O)N[C@H](C(=O)N(N)[C@@H](Cc1ccc(O)cc1)C(=O)N[C@@H](CCCCN)C(N)=O)C(C)C)N(N)C(=O)[C@H](CCC(N)=O)NC(=O)[C@@H](NC(C)=O)C(C)C) [Compound 12, Ac-Val-Gln-aIle-Val-aTyr-Lys-NH2]	≤ 50	~5
Ac-[aVal]Q[aIle′]INK-NH2 (SMILES CC[C@H](C)[C@H](NC(=O)[C@H]([C@@H](C)CC)N(N)C(=O)[C@H](CCC(N)=O)NC(=O)[C@H](C(C)C)N(N)C(C)=O)C(=O)N[C@@H](CC(N)=O)C(=O)N[C@@H](CCCCN)C(N)=O) [Compound 4, Ac-aVal-Gln-aIle-Ile-Asn-Lys-NH2]	≤ 50	–
Ac-[aVal]QIVYK-NH2 (SMILES CC[C@H](C)[C@H](NC(=O)[C@H](CCC(N)=O)NC(=O)[C@H](C(C)C)N(N)C(C)=O)C(=O)N[C@H](C(=O)N[C@@H](Cc1ccc(O)cc1)C(=O)N[C@@H](CCCCN)C(N)=O)C(C)C) [Compound 5, Ac-aVal-Gln-Ile-Val-Tyr-Lys-NH2]	≤ 50	–
Ac-VQI[aVal]Y[N(NH2)Lys]-NH2 (SMILES CC[C@H](C)[C@H](NC(=O)[C@H](CCC(N)=O)NC(=O)[C@@H](NC(C)=O)C(C)C)C(=O)N(N)[C@H](C(=O)N[C@@H](Cc1ccc(O)cc1)C(=O)N(N)[C@@H](CCCCN)C(N)=O)C(C)C) [Compound 13, Ac-Val-Gln-Ile-aVal-Tyr-aLys-NH2]	≤ 50	~5
Ac-VQ[aIle′]VYK-NH2 (SMILES CC[C@H](C)[C@@H](C(=O)N[C@H](C(=O)N[C@@H](Cc1ccc(O)cc1)C(=O)N[C@@H](CCCCN)C(N)=O)C(C)C)N(N)C(=O)[C@H](CCC(N)=O)NC(=O)[C@@H](NC(C)=O)C(C)C) [Compound 6, Ac-Val-Gln-aIle-Val-Tyr-Lys-NH2]	≤ 50	–
Ac-VQ[aIle′]INK-NH2 (SMILES CC[C@H](C)[C@H](NC(=O)[C@H]([C@@H](C)CC)N(N)C(=O)[C@H](CCC(N)=O)NC(=O)[C@@H](NC(C)=O)C(C)C)C(=O)N[C@@H](CC(N)=O)C(=O)N[C@@H](CCCCN)C(N)=O) [Compound 2, Ac-Val-Gln-aIle-Ile-Asn-Lys-NH2]	≤ 50	–
